According to patent publication EP4628507A1:
Like-named read-outs stand apart in the source and are kept apart here.

Experiments:
[1] = molecular target: human 4-1BB on the surface of HEK293-Hu4-1BB cells (human) (UniProt Q07011); experiment: flow cytometry on HEK293-Hu4-1BB cells, isotype control
[2] = molecular target: human 4-1BB on the surface of HEK293-Hu4-1BB cells (human) (UniProt Q07011); experiment: cell-based or functional assay
[3] = molecular target: human CD16A-V176 on CHO / CHO-K1 cells (human) (UniProt P08637); experiment: flow cytometry on CHO-K1-CD16A V176 cells, isotype control
[4] = molecular target: human 4-1BB on the surface of HEK293-Hu4-1BB cells (human) (UniProt Q07011); experiment: flow cytometry on HEK293-Hu4-1BB cells, isotype control; remark: listed apart in the source
[5] = molecular target: human 4-1BB on the surface of HEK293-Hu4-1BB cells (human) (UniProt Q07011); experiment: cell-based or functional assay; remark: listed apart in the source
[6] = molecular target: human CLDN18.2 on cells (NUGC4-hi18.2 cells; SNU601 cells in the ADCC assay) (human) (UniProt P56856); experiment: cell-based or functional assay
[7] = molecular target: human 4-1BB on the surface of HEK293-Hu4-1BB cells (human) (UniProt Q07011); experiment: flow cytometry on HEK293-Hu4-1BB cells, isotype control; remark: listed apart in the source
[8] = molecular target: human CLDN18.2 on cells (NUGC4-hi18.2 cells; SNU601 cells in the ADCC assay) (human) (UniProt P56856); experiment: flow cytometry on NUGC4-hi18.2 cells, isotype control
[9] = molecular target: human CD16A-V176 on CHO / CHO-K1 cells (human) (UniProt P08637); experiment: flow cytometry on CHO-K1-CD16A V176 cells
[10] = molecular target: human CLDN18.2 on cells (NUGC4-hi18.2 cells; SNU601 cells in the ADCC assay) (human) (UniProt P56856); experiment: flow cytometry on NUGC4-hi18.2 cells

Chain of human 4-1BB on the surface of HEK293-Hu4-1BB cells (human) (Q07011 24-255): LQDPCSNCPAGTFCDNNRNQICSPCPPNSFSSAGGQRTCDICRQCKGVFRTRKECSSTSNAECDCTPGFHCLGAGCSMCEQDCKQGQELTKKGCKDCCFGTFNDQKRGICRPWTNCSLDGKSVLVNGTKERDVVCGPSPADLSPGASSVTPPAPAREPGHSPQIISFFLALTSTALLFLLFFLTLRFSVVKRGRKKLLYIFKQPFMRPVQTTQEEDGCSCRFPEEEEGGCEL
Chain of human CD16A-V176 on CHO / CHO-K1 cells (human) (P08637 17-254 F176V): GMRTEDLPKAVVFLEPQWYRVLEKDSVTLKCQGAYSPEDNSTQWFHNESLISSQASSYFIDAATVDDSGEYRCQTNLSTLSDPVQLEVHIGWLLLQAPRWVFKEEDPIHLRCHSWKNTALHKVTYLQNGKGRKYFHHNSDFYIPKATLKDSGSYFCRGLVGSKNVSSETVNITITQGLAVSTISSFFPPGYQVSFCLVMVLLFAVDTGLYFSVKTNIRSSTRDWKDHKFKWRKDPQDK

In the case of isotype IgG1 antibody (control), the Maximal fluorescence value [1] is reported as 106, the Fold change in Emax, 4-1BB/NF-κB luciferase reporter, CLDN18.2 cross-linking [2] is reported as 1.15 fold and the Fold change in Emax, 4-1BB/NF-κB luciferase reporter, no cross-linking [2] is reported as 1.17 fold. For the same substance, the Maximal fluorescence value [3] was 1590, the Maximal fluorescence value [4] was 123 and the Emax, 4-1BB/NF-κB luciferase reporter, FcγRIIb cross-linking (relative to the antibody-free group) [5] was 1.12. For the same substance, the Emax, 4-1BB/NF-κB luciferase reporter, no FcγRIIb cross-linking (relative to the antibody-free group) [5] was 1.1, the Fold change in Emax, 4-1BB/NF-κB luciferase reporter, CLDN18.2 cross-linking [5] was 1.17 fold and the Fold change in Emax, 4-1BB/NF-κB luciferase reporter, no CLDN18.2 cross-linking [5] was 1.16 fold. The ADCC maximum killing rate, NUGC4-hi18.2 target cells, PBMC donor S2001102 (V176) [6] was 21.8%, the ADCC maximum killing rate, NUGC4-hi18.2 target cells, PBMC donor SC190061 (F176) [6] was 10.7% and the ADCC maximum killing rate, SNU601 target cells, PBMC donor S2001102 (V176) [6] was 22.7%. It also gave an ADCC maximum killing rate, SNU601 target cells, PBMC donor SC190061 (F176) [6] of 11.4%, an ADCP maximum phagocytosis rate, macrophages against NUGC4-hi18.2 cells [6] of 19.8% and a Maximal fluorescence value [7] of 67. The Maximal fluorescence value [8] was 107.
For TJ-CD4B (bispecific antibody), the Maximal fluorescence value [9] was 113, the EC50 [10] was 16.2 nM and the Maximal fluorescence value [10] was 89300.
Substance ADG106 (antibody) has a Fold change in Emax, 4-1BB/NF-κB luciferase reporter, CLDN18.2 cross-linking [2] of 1.42 fold and a Fold change in Emax, 4-1BB/NF-κB luciferase reporter, no cross-linking [2] of 1.13 fold.
IMAB362 (antibody) showed an EC50 [9] of 14.8 nM and a Maximal fluorescence value [9] of 3390.
